Test results taken from patent US20120172293A1 (Takeda / Millennium, published 2012).
Starred links: 1 amine or outer side, 2 acyl side, 3 side chain; linkers in the order of their positions; H or OH if unused. Non-standard residues stand in square brackets, D forms with d. No end group written: not given here. *: point of attachment. Ala(piperidin-4-yl) = O=C([C@H](CC1CCN([*:3])CC1)N[*:1])[*:2]; X7 = (tetrahydro-2H-pyran-4-yl)carbamoyl, O=C(NC1CCOCC1)*; (3-carboxypropyl)carbamoyl = O=C(O)CCCNC(=O)*; (carboxymethyl)carbamoyl = O=C(O)CNC(=O)*; Imidazole4carbonyl = O=C(c1cnc[nH]1)*; Arg(Me) = CNC(=N)NCCC[C@H](N)C(=O)O; hArg = N=C(N)NCCCC[C@H](N)C(=O)O; 4Pal = N[C@@H](Cc1ccncc1)C(=O)O; Cha = N[C@@H](CC1CCCCC1)C(=O)O; Isonicotinoyl = O=C(c1ccncc1)*; Suc = O=C(CCC(=O)[*:2])[*:1]; Iva = CC[C@](C)(N)C(=O)O; Nle = CCCC[C@H](N)C(=O)O; Aib = CC(C)(N)C(=O)O; Ahx = NCCCCCC(=O)O

B1: 4-Imidazolecarbonyl-[D-Pro24, Iva25, Pya(4)26, Cha27,36, Aib28,31, Lys30]-PYY(23-36) (peptide)
peptide: Imidazole4carbonyl-S[dP][Iva][4Pal][Cha][Aib]NK[Aib]TRQR[Cha]-NH2
SMILES: CC[C@](C)(NC(=O)[C@H]1CCCN1C(=O)[C@H](CO)NC(=O)c1cnc[nH]1)C(=O)N[C@@H](Cc1ccncc1)C(=O)N[C@@H](CC1CCCCC1)C(=O)NC(C)(C)C(=O)N[C@@H](CC(N)=O)C(=O)N[C@@H](CCCCN)C(=O)NC(C)(C)C(=O)N[C@H](C(=O)N[C@@H](CCCNC(=N)N)C(=O)N[C@@H](CCC(N)=O)C(=O)N[C@@H](CCCNC(=N)N)C(=O)N[C@@H](CC1CCCCC1)C(N)=O)[C@@H](C)O
B2: 4-Pyridinecarbonyl-[D-Pro24, Iva25, Pya(4)26, Cha27,36, Aib28,31, Lys30]-PYY(23-36) (peptide)
peptide: Isonicotinoyl-S[dP][Iva][4Pal][Cha][Aib]NK[Aib]TRQR[Cha]-NH2
SMILES: CC[C@](C)(NC(=O)[C@H]1CCCN1C(=O)[C@H](CO)NC(=O)c1ccncc1)C(=O)N[C@@H](Cc1ccncc1)C(=O)N[C@@H](CC1CCCCC1)C(=O)NC(C)(C)C(=O)N[C@@H](CC(N)=O)C(=O)N[C@@H](CCCCN)C(=O)NC(C)(C)C(=O)N[C@H](C(=O)N[C@@H](CCCNC(=N)N)C(=O)N[C@@H](CCC(N)=O)C(=O)N[C@@H](CCCNC(=N)N)C(=O)N[C@@H](CC1CCCCC1)C(N)=O)[C@@H](C)O
B3: 4-Imidazolecarbonyl-[D-Pro24, Nle25, Pya(4)26, Cha27,36, Aib28,31, Lys30]-PYY(23-36) (peptide)
peptide: Imidazole4carbonyl-S[dP][Nle][4Pal][Cha][Aib]NK[Aib]TRQR[Cha]-NH2
SMILES: CCCC[C@H](NC(=O)[C@H]1CCCN1C(=O)[C@H](CO)NC(=O)c1cnc[nH]1)C(=O)N[C@@H](Cc1ccncc1)C(=O)N[C@@H](CC1CCCCC1)C(=O)NC(C)(C)C(=O)N[C@@H](CC(N)=O)C(=O)N[C@@H](CCCCN)C(=O)NC(C)(C)C(=O)N[C@H](C(=O)N[C@@H](CCCNC(=N)N)C(=O)N[C@@H](CCC(N)=O)C(=O)N[C@@H](CCCNC(=N)N)C(=O)N[C@@H](CC1CCCCC1)C(N)=O)[C@@H](C)O
B4: 3-Carboxypropionyl-[D-Pro24, Pya(4)26, Cha27,36, Aib28,31, Lys30]-PYY(24-36) (peptide)
peptide: Suc-[dP]R[4Pal][Cha][Aib]NK[Aib]TRQR[Cha]-NH2
SMILES: C[C@@H](O)[C@H](NC(=O)C(C)(C)NC(=O)[C@H](CCCCN)NC(=O)[C@H](CC(N)=O)NC(=O)C(C)(C)NC(=O)[C@H](CC1CCCCC1)NC(=O)[C@H](Cc1ccncc1)NC(=O)[C@H](CCCNC(=N)N)NC(=O)[C@H]1CCCN1C(=O)CCC(=O)O)C(=O)N[C@@H](CCCNC(=N)N)C(=O)N[C@@H](CCC(N)=O)C(=O)N[C@@H](CCCNC(=N)N)C(=O)N[C@@H](CC1CCCCC1)C(N)=O
B5: [Acp23, D-Pro24, Pya(4)26, Cha27,36, Aib28,31, Lys30]-PYY(23-36) (peptide)
peptide: [Ahx][dP]R[4Pal][Cha][Aib]NK[Aib]TRQR[Cha]-NH2
modifications: not fully specified (N-terminus); printed as Ac-Acp-D-Pro-Arg-Pya(4)-Cha-Aib-Asn-Lys-Aib-Thr-Arg-Gln-Arg-Cha-NH2
B6: Ac-[D-Pro24, Ala(4Pip)25, Pya(4)26, Cha27,36, Aib28,31, Lys30]-PYY(23-36) former peak (peptide)
peptide: Ac-S[dP][Ala(piperidin-4-yl)][4Pal][Cha][Aib]NK[Aib]TRQR[Cha]-NH2
modifications: also: Ala(4Pip)25 D or L, not assigned, former peak isomer
B7: Ac-[D-Pro24, Ala(4Pip)25, Pya(4)26, Cha27,36, Aib28,31, Lys30]-PYY(23-36) later peak (peptide)
peptide: Ac-S[dP][Ala(piperidin-4-yl)][4Pal][Cha][Aib]NK[Aib]TRQR[Cha]-NH2
modifications: also: Ala(4Pip)25 D or L, not assigned, later peak isomer
B8: Ac-[D-Pro24, Arg(Me)25,30, Pya(4)26, Cha27,36, Aib28,31]-PYY(23-36) (peptide)
peptide: Ac-S[dP][Arg(Me)][4Pal][Cha][Aib]N[Arg(Me)][Aib]TRQR[Cha]-NH2
SMILES: CNC(=N)NCCC[C@H](NC(=O)[C@H](CC(N)=O)NC(=O)C(C)(C)NC(=O)[C@H](CC1CCCCC1)NC(=O)[C@H](Cc1ccncc1)NC(=O)[C@H](CCCNC(=N)NC)NC(=O)[C@H]1CCCN1C(=O)[C@H](CO)NC(C)=O)C(=O)NC(C)(C)C(=O)N[C@H](C(=O)N[C@@H](CCCNC(=N)N)C(=O)N[C@@H](CCC(N)=O)C(=O)N[C@@H](CCCNC(=N)N)C(=O)N[C@@H](CC1CCCCC1)C(N)=O)[C@@H](C)O
B9: Ac-[D-Pro24, Iva25, Pya(4)26, Cha27,36, Aib28,31, Arg(Me)30]-PYY(23-36) (peptide)
peptide: Ac-S[dP][Iva][4Pal][Cha][Aib]N[Arg(Me)][Aib]TRQR[Cha]-NH2
B10: Ac-[D-Pro24, Iva25, Pya(4)26, Cha27,36, Aib28,31, Har30]-PYY(23-36) (peptide)
peptide: Ac-S[dP][Iva][4Pal][Cha][Aib]N[hArg][Aib]TRQR[Cha]-NH2
SMILES: CC[C@](C)(NC(=O)[C@H]1CCCN1C(=O)[C@H](CO)NC(C)=O)C(=O)N[C@@H](Cc1ccncc1)C(=O)N[C@@H](CC1CCCCC1)C(=O)NC(C)(C)C(=O)N[C@@H](CC(N)=O)C(=O)N[C@@H](CCCCNC(=N)N)C(=O)NC(C)(C)C(=O)N[C@H](C(=O)N[C@@H](CCCNC(=N)N)C(=O)N[C@@H](CCC(N)=O)C(=O)N[C@@H](CCCNC(=N)N)C(=O)N[C@@H](CC1CCCCC1)C(N)=O)[C@@H](C)O
B11: 4-Imidazolecarbonyl-[D-Pro24, Iva25, Pya(4)26, Cha27,30,36, Aib28,31]-PYY(23-36) (peptide)
peptide: Imidazole4carbonyl-S[dP][Iva][4Pal][Cha][Aib]N[Cha][Aib]TRQR[Cha]-NH2
SMILES: CC[C@](C)(NC(=O)[C@H]1CCCN1C(=O)[C@H](CO)NC(=O)c1cnc[nH]1)C(=O)N[C@@H](Cc1ccncc1)C(=O)N[C@@H](CC1CCCCC1)C(=O)NC(C)(C)C(=O)N[C@@H](CC(N)=O)C(=O)N[C@@H](CC1CCCCC1)C(=O)NC(C)(C)C(=O)N[C@H](C(=O)N[C@@H](CCCNC(=N)N)C(=O)N[C@@H](CCC(N)=O)C(=O)N[C@@H](CCCNC(=N)N)C(=O)N[C@@H](CC1CCCCC1)C(N)=O)[C@@H](C)O
B12: Ac-[Arg23, D-Pro24, Iva25, Pya(4)26, Cha27,36, Aib28,31, Lys30]-PYY(23-36) (peptide)
peptide: Ac-R[dP][Iva][4Pal][Cha][Aib]NK[Aib]TRQR[Cha]-NH2
SMILES: CC[C@](C)(NC(=O)[C@H]1CCCN1C(=O)[C@H](CCCNC(=N)N)NC(C)=O)C(=O)N[C@@H](Cc1ccncc1)C(=O)N[C@@H](CC1CCCCC1)C(=O)NC(C)(C)C(=O)N[C@@H](CC(N)=O)C(=O)N[C@@H](CCCCN)C(=O)NC(C)(C)C(=O)N[C@H](C(=O)N[C@@H](CCCNC(=N)N)C(=O)N[C@@H](CCC(N)=O)C(=O)N[C@@H](CCCNC(=N)N)C(=O)N[C@@H](CC1CCCCC1)C(N)=O)[C@@H](C)O
B13: Ac-[Glu23, D-Pro24, Iva25, Pya(4)26, Cha27,36, Aib28,31, Lys30]-PYY(23-36) (peptide)
peptide: Ac-E[dP][Iva][4Pal][Cha][Aib]NK[Aib]TRQR[Cha]-NH2
SMILES: CC[C@](C)(NC(=O)[C@H]1CCCN1C(=O)[C@H](CCC(=O)O)NC(C)=O)C(=O)N[C@@H](Cc1ccncc1)C(=O)N[C@@H](CC1CCCCC1)C(=O)NC(C)(C)C(=O)N[C@@H](CC(N)=O)C(=O)N[C@@H](CCCCN)C(=O)NC(C)(C)C(=O)N[C@H](C(=O)N[C@@H](CCCNC(=N)N)C(=O)N[C@@H](CCC(N)=O)C(=O)N[C@@H](CCCNC(=N)N)C(=O)N[C@@H](CC1CCCCC1)C(N)=O)[C@@H](C)O
B14: (Carboxymethyl)carbamoyl-[D-Pro24, Iva25, Pya(4)26, Cha27,36, Aib28,31, Lys30]-PYY(23-36) (peptide)
peptide: {(carboxymethyl)carbamoyl}-S[dP][Iva][4Pal][Cha][Aib]NK[Aib]TRQR[Cha]-NH2
SMILES: CC[C@](C)(NC(=O)[C@H]1CCCN1C(=O)[C@H](CO)NC(=O)NCC(=O)O)C(=O)N[C@@H](Cc1ccncc1)C(=O)N[C@@H](CC1CCCCC1)C(=O)NC(C)(C)C(=O)N[C@@H](CC(N)=O)C(=O)N[C@@H](CCCCN)C(=O)NC(C)(C)C(=O)N[C@H](C(=O)N[C@@H](CCCNC(=N)N)C(=O)N[C@@H](CCC(N)=O)C(=O)N[C@@H](CCCNC(=N)N)C(=O)N[C@@H](CC1CCCCC1)C(N)=O)[C@@H](C)O
B15: (3-Carboxypropyl)carbamoyl-[D-Pro24, Iva25, Pya(4)26, Cha27,36, Aib28,31, Lys30]-PYY(23-36) (peptide)
peptide: {(3-carboxypropyl)carbamoyl}-S[dP][Iva][4Pal][Cha][Aib]NK[Aib]TRQR[Cha]-NH2
SMILES: CC[C@](C)(NC(=O)[C@H]1CCCN1C(=O)[C@H](CO)NC(=O)NCCCC(=O)O)C(=O)N[C@@H](Cc1ccncc1)C(=O)N[C@@H](CC1CCCCC1)C(=O)NC(C)(C)C(=O)N[C@@H](CC(N)=O)C(=O)N[C@@H](CCCCN)C(=O)NC(C)(C)C(=O)N[C@H](C(=O)N[C@@H](CCCNC(=N)N)C(=O)N[C@@H](CCC(N)=O)C(=O)N[C@@H](CCCNC(=N)N)C(=O)N[C@@H](CC1CCCCC1)C(N)=O)[C@@H](C)O
B16: (Tetrahydro-2H-pyran-4-yl)carbamoyl-[D-Pro24, Iva25, Pya(4)26, Cha27,36, Aib28,31, Lys30]-PYY(23-36) (peptide)
peptide: X7-S[dP][Iva][4Pal][Cha][Aib]NK[Aib]TRQR[Cha]-NH2
SMILES: CC[C@](C)(NC(=O)[C@H]1CCCN1C(=O)[C@H](CO)NC(=O)NC1CCOCC1)C(=O)N[C@@H](Cc1ccncc1)C(=O)N[C@@H](CC1CCCCC1)C(=O)NC(C)(C)C(=O)N[C@@H](CC(N)=O)C(=O)N[C@@H](CCCCN)C(=O)NC(C)(C)C(=O)N[C@H](C(=O)N[C@@H](CCCNC(=N)N)C(=O)N[C@@H](CCC(N)=O)C(=O)N[C@@H](CCCNC(=N)N)C(=O)N[C@@H](CC1CCCCC1)C(N)=O)[C@@H](C)O

What was measured:
[1] = biological target: human Y2 receptor (human) (UniProt P49146); test: RBA: displacement of [125I]-PYY from hY2R/CHO membranes
human Y2 receptor (human), sequence (P49146 whole entry): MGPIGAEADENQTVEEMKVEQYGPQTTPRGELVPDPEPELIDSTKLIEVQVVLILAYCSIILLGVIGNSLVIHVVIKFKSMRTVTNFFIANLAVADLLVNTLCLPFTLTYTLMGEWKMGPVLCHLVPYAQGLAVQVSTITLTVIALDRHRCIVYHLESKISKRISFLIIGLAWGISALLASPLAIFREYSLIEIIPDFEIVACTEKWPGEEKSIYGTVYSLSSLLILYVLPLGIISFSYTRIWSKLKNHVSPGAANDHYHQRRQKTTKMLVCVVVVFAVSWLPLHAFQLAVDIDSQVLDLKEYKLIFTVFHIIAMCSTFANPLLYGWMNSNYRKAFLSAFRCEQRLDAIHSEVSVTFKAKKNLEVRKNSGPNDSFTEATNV

[2] = biological target: human Y2 receptor (human) (UniProt P49146); test: cell-based or functional assay

IC50 Ratio (IC50 compound/IC50 PYY(3-36)) [1]	GBA EC50 Ratio ([35S]GTPγS binding) (EC50 compound/EC50 PYY(3-36)) [2]	Binder
0.77	0.91	B1
1	1.1	B2
1.7	1.2	B3
1.2	1.2	B4
0.32	1.1	B5
18	14	B6
4.3	5.8	B7
1.5	1.5	B8
2.4	1.7	B9
0.65	1	B10
2.3	1.9	B11
0.88	0.78	B12
6.1	2.8	B13
3	1.6	B14
1.6	1.9	B15
1.7	1.8	B16
